Measurements taken from publication doi:10.1101/2025.02.16.638521 (bioRxiv, 2025).
Each block holds one binder with its values, some of them ahead of it.

Assays:
[1] = molecular target: T1, Themis^1-563 (truncated Themis, residues 1-563) (human, UniProt Q8N1K5); experiment: cryo-EM structure
[2] = molecular target: tagless Themis^1-563 (co-expressed with His-tagged Grb2^FL) (human, UniProt Q8N1K5); experiment: cryo-EM structure
[3] = molecular target: Themis^1-563-Grb2^FL complex (co-expressed, pre-formed) (human, UniProt Q8N1K5;P62993); experiment: SEC-MALS
[4] = molecular target: T1, Themis^1-563 (truncated Themis, …); experiment: BLI
[5] = molecular target: full-length Grb2 (Grb2^FL) (human, UniProt P62993 1-217); experiment: SEC-MALS

binding result [1]: binds
binding result [2]: binds
B1: PMb256 (Pro-Macrobody of Nb256) (VHH)
VHH: QVQLQESGGGLVQAGGSLRLSCAASGRTFSTYAMGWFRQAPGKEREFVAAILWSDGSTYYADSVKGRFTISRDNAKNTVYLQMNSLKPEDTAVYYCAADYTGVRYDYWGQGTQVTVPP

binding result [3]: binds
binding result [4]: binds
B2: Nb256 (Themis-specific single domain VHH camelid antibody fragment) (VHH)
VHH: QVQLQESGGGLVQAGGSLRLSCAASGRTFSTYAMGWFRQAPGKEREFVAAILWSDGSTYYADSVKGRFTISRDNAKNTVYLQMNSLKPEDTAVYYCAADYTGVRYDYWGQGTQVTVPP

stoichiometry N [5]: 1
B3: tagless Themis^1-563 (co-expressed with His-tagged Grb2^FL) (domain or fragment)
chain: MALSLEEFVHSLDLRTLPRVLEIQAGIYLEGSIYEMFGNECCFSTGEVIKITGLKVKKIIAEICEQIEGCESLQPFELPMNFPGLFKIVADKTPYLTMEEITRTIHIGPSRLGHPCFYHQKDIKLENLIIKQGEQIMLNSVEEIDGEIMVSCAVARNHQTHSFNLPLSQEGEFYECEDERIYTLKEIVEWKIPKNRTRTVNLTDFSNKWDSTNPFPKDFYGTLILKPVYEIQGVMKFRKDIIRILPSLDVEVKDITDSYDANWFLQLLSTEDLFEMTSKEFPIVTEVIEAPEGNHLPQSILQPGKTIVIHKKYQASRILASEIRSNFPKRHFLIPTSYKGKFKRRPREFPTAYDLEIAKSEKEPLHVVATKAFHSPHDKLSSVSVGDQFLVHQSETTEVLCEGIKKVVNVLACEKILKKSYEAALLPLYMEGGFVEVIHDKKQYPISELCKQFRLPFNVKVSVRDLSIEEDVLAATPGLQLEEDITDSYLLISDFANPTECWEIPVGRLNMTVQLVSNFSRDAEPFLVRTLVEEITEEQYYMMRRYESSASHPPPRPPKHPSV
